Reference: IntAct's records for PubMed 20881132

Target: sgg_drome sgg (UniProt P18431)
UniProt P18431, sequence (P18431 whole entry): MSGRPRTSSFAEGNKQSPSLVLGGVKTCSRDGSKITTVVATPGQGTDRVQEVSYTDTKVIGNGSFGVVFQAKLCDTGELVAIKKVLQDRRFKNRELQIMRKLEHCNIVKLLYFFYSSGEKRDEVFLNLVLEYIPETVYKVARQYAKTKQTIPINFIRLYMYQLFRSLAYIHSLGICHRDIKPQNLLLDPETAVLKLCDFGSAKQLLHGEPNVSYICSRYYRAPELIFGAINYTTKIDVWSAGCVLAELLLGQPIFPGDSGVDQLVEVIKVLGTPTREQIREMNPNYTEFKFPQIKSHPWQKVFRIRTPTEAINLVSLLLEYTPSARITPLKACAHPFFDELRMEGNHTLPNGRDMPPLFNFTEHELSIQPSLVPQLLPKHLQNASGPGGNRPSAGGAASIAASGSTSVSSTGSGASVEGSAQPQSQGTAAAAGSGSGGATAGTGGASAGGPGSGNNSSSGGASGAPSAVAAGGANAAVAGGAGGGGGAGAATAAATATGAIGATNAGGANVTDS

Leucine-rich repeat serine/threonine-protein kinase 2 (Homo sapiens), Q5S007 G2019S
effect of a mutation on the interaction: increasing interaction
